Measurements: paper doi:10.1101/2021.04.07.438849 (bioRxiv, 2021)

Biological target: T1, SARS-CoV-2 Wuhan-Hu-1 S-HexaPro-D614G, displayed on HEK293T cells (SARS-CoV-2 Wuhan-Hu-1 with D614G …, UniProt A0A6N0C4S6, D614G)
T1 construct: also called WT (HexaPro-D614G); prefusion stabilized SARS-CoV-2 S D614G
Experiment: flow cytometry on cells
Settings: one partner purified

B1: A7V3 IgG (antibody, V domains shown)
VH: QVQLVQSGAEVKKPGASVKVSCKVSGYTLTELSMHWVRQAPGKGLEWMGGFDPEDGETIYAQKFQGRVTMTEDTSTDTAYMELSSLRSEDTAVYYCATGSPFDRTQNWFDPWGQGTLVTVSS
VL: QSVVTQPPSVSAAPGQKVTISCSGSSSNIGNNYVSWYQQLPGTAPKLLIYDNNKRPSGIPDRFSGSKSGTSATLGITGLQTGDEADYYCGTWDSSLSAVVFGGGTKLTVL
notes: also called mAb A7V3
binding result: binds
